Assay results reported in patent US20220017591A1 (AstraZeneca / MedImmune, published 2022).

T1: human RXFP1 (human, UniProt Q9HBX9 1-757)
T1 sequence (looked up): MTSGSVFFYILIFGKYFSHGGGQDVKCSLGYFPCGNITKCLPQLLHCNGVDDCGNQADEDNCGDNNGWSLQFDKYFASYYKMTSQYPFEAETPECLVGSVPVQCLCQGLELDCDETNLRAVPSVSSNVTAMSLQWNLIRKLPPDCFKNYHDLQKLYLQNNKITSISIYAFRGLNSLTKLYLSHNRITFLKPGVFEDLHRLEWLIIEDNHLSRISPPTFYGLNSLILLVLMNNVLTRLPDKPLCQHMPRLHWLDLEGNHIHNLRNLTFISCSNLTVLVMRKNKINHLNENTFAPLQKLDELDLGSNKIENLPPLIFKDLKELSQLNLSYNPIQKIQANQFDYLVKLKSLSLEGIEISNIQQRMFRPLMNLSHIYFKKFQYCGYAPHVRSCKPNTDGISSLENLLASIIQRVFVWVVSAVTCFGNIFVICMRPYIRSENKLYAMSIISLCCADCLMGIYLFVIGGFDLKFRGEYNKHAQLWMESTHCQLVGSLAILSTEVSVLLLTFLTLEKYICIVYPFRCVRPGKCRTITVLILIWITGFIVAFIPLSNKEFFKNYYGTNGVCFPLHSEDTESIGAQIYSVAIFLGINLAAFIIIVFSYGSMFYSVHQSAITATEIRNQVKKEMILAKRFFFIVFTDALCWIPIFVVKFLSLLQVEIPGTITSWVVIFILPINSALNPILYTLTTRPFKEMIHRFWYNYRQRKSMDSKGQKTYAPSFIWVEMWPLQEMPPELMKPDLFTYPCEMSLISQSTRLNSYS

T2: mouse RXFP1 (mouse, UniProt Q6R6I7 1-758)
T2 sequence (looked up): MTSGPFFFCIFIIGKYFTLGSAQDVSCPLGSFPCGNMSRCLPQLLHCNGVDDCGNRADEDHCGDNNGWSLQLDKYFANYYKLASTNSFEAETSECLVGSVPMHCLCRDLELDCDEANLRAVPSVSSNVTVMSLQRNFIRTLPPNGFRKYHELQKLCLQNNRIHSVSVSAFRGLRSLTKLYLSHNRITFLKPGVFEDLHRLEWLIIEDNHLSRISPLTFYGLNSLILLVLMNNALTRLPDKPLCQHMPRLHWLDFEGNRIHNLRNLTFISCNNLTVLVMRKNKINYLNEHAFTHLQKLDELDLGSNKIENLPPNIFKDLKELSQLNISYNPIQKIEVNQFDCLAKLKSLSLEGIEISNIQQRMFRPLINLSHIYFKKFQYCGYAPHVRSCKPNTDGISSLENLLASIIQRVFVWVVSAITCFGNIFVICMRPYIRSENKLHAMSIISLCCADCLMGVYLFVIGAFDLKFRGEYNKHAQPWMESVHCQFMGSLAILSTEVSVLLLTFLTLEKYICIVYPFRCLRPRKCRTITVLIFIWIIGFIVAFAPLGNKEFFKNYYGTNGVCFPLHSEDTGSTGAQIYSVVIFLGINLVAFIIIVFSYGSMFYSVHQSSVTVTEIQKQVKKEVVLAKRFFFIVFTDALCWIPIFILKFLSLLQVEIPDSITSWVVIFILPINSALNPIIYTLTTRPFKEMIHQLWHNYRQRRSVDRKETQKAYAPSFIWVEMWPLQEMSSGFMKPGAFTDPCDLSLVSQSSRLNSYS


How the values were obtained:
Experiment in all cases: cell-based or functional assay
human RXFP1 = target: T1, human RXFP1
mouse RXFP1 = target: T2, mouse RXFP1
human RXFP2 = human RXFP2 (human, UniProt Q8WXD0 1-754)
human RXFP2, sequence (Q8WXD0 whole entry): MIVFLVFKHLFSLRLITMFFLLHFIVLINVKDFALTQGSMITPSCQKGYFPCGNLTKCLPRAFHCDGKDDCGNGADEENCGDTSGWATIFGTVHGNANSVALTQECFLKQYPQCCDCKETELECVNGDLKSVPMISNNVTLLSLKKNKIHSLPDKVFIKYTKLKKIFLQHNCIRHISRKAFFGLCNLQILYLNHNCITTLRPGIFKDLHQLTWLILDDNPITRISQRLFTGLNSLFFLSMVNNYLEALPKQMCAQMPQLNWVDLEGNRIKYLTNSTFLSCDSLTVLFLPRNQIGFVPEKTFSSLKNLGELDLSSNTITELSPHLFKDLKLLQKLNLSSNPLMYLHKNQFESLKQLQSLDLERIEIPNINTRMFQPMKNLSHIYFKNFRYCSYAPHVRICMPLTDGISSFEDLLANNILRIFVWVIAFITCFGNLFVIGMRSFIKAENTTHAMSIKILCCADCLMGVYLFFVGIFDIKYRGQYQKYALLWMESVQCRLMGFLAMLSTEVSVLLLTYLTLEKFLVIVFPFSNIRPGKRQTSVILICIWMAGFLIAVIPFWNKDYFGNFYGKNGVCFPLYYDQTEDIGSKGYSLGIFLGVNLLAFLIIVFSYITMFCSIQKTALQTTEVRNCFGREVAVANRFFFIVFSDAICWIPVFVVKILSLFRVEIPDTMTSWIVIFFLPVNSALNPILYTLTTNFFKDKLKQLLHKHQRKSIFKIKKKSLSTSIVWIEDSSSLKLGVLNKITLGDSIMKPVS

| Binder | EC50 hRXFP1 (M), cAMP assay (human RXFP1) [M] | EC50 mRXFP1 (M), cAMP assay (mouse RXFP1) [M] | EC50 hRXFP2 (M), cAMP assay (human RXFP2) [M] |
| --- | --- | --- | --- |
| RELAX0055 (Fc fusion) chain 1: DKTHTCPPCPAPEFEGGPSVFLFPPKPKDTLMISRTPEVTCVVVDVSHEDPEVKFNWYVDGVEVHNAKTKPREEQYNSTYRVVSVLTVLHQDWLNGKEYKCKVSNKALPASIEKTISKAKGQPREPQVYTLPPCREEMTKNQVSLWCLVKGFYPSDIAVEWESNGQPENNYKTTPPVLDSDGSFFLYSKLTVDKSRWQQGNVFSCSVMHEALHNHYTQKSLSLSPGAPAPAPAPAGSQLYSALANKCCHVGCTKRSLARFC chain 2: DKTHTCPPCPAPEFEGGPSVFLFPPKPKDTLMISRTPEVTCVVVDVSHEDPEVKFNWYVDGVEVHNAKTKPREEQYNSTYRVVSVLTVLHQDWLNGKEYKCKVSNKALPASIEKTISKAKGQPREPQVCTLPPSREEMTKNQVSLSCAVKGFYPSDIAVEWESNGQPENNYKTTPPVLDSDGSFFLVSKLTVDKSRWQQGNVFSCSVMHEALHNHYTQKSLSLSPGAPAPAPAPAGSSWMEEVIKLCGRELVRAQIAICGMSTWS | 1.88e-11 | 1.51e-11 | 3.39e-08 |
| RELAX0054 (Fc fusion) chain 1: DKTHTCPPCPAPEFEGGPSVFLFPPKPKDTLMISRTPEVTCVVVDVSHEDPEVKFNWYVDGVEVHNAKTKPREEQYNSTYRVVSVLTVLHQDWLNGKEYKCKVSNKALPASIEKTISKAKGQPREPQVCTLPPSREEMTKNQVSLSCAVKGFYPSDIAVEWESNGQPENNYKTTPPVLDSDGSFFLVSKLTVDKSRWQQGNVFSCSVMHEALHNHYTQKSLSLSPGAAPAPAPAPAPAPAGSQLYSALANKCCHVGCTKRSLARFC chain 2: DKTHTCPPCPAPEFEGGPSVFLFPPKPKDTLMISRTPEVTCVVVDVSHEDPEVKFNWYVDGVEVHNAKTKPREEQYNSTYRVVSVLTVLHQDWLNGKEYKCKVSNKALPASIEKTISKAKGQPREPQVYTLPPCREEMTKNQVSLWCLVKGFYPSDIAVEWESNGQPENNYKTTPPVLDSDGSFFLYSKLTVDKSRWQQGNVFSCSVMHEALHNHYTQKSLSLSPGAAPAPAPAPAPAPAGSSWMEEVIKLCGRELVRAQIAICGMSTWS | 2.89e-11 | 1.59e-11 | 1.53e-08 |
| RELAX0056 (Fc fusion) chain 1: DKTHTCPPCPAPEFEGGPSVFLFPPKPKDTLMISRTPEVTCVVVDVSHEDPEVKFNWYVDGVEVHNAKTKPREEQYNSTYRVVSVLTVLHQDWLNGKEYKCKVSNKALPASIEKTISKAKGQPREPQVYTLPPCREEMTKNQVSLWCLVKGFYPSDIAVEWESNGQPENNYKTTPPVLDSDGSFFLYSKLTVDKSRWQQGNVFSCSVMHEALHNHYTQKSLSLSPGAPAPAPAPAPAPAPAPAPAGSQLYSALANKCCHVGCTKRSLARFC chain 2: DKTHTCPPCPAPEFEGGPSVFLFPPKPKDTLMISRTPEVTCVVVDVSHEDPEVKFNWYVDGVEVHNAKTKPREEQYNSTYRVVSVLTVLHQDWLNGKEYKCKVSNKALPASIEKTISKAKGQPREPQVCTLPPSREEMTKNQVSLSCAVKGFYPSDIAVEWESNGQPENNYKTTPPVLDSDGSFFLVSKLTVDKSRWQQGNVFSCSVMHEALHNHYTQKSLSLSPGAPAPAPAPAPAPAPAPAPAGSSWMEEVIKLCGRELVRAQIAICGMSTWS | 3.87e-11 | 3.27e-11 | 6.48e-08 |

Further lines, results first:

| EC50 hRXFP1 (M), cAMP assay (human RXFP1) [M] | EC50 mRXFP1 (M), cAMP assay (mouse RXFP1) [M] | EC50 hRXFP2 (M), cAMP assay (human RXFP2) [M] | Binder |
| --- | --- | --- | --- |
| 4.89e-11 | 3.48e-11 | 3.63e-08 | RELAX0087 (Fc fusion) chain 1: DKTHTCPPCPAPEFEGGPSVFLFPPKPKDTLMISRTPEVTCVVVDVSHEDPEVKFNWYVDGVEVHNAKTKPREEQYNSTYRVVSVLTVLHQDWLNGKEYKCKVSNKALPASIEKTISKAKGQPREPQVYTLPPCREEMTKNQVSLWCLVKGFYPSDIAVEWESNGQPENNYKTTPPVLDSDGSFFLYSKLTVDKSRWQQGNVFSCSVMHEALHNHYTQKSLSLSPGGGGGSGGGGSGGGGSGGGGGSQLYSALANKCCHVGCTKRSLARFC chain 2: DKTHTCPPCPAPEFEGGPSVFLFPPKPKDTLMISRTPEVTCVVVDVSHEDPEVKFNWYVDGVEVHNAKTKPREEQYNSTYRVVSVLTVLHQDWLNGKEYKCKVSNKALPASIEKTISKAKGQPREPQVCTLPPSREEMTKNQVSLSCAVKGFYPSDIAVEWESNGQPENNYKTTPPVLDSDGSFFLVSKLTVDKSRWQQGNVFSCSVMHEALHNHYTQKSLSLSPGGGGGSGGGGSGGGGGSSWMEEVIKLCGRELVRAQIAICGMSTWS |
| 5.34e-11 | 3.48e-11 | 1.2e-08 | RELAX0084 (Fc fusion) chain 1: DKTHTCPPCPAPEFEGGPSVFLFPPKPKDTLMISRTPEVTCVVVDVSHEDPEVKFNWYVDGVEVHNAKTKPREEQYNSTYRVVSVLTVLHQDWLNGKEYKCKVSNKALPASIEKTISKAKGQPREPQVYTLPPCREEMTKNQVSLWCLVKGFYPSDIAVEWESNGQPENNYKTTPPVLDSDGSFFLYSKLTVDKSRWQQGNVFSCSVMHEALHNHYTQKSLSLSPGAPAPAPAPAPAPAPAPAPAGSQLYSALANKCCHVGCTKRSLARFC chain 2: DKTHTCPPCPAPEFEGGPSVFLFPPKPKDTLMISRTPEVTCVVVDVSHEDPEVKFNWYVDGVEVHNAKTKPREEQYNSTYRVVSVLTVLHQDWLNGKEYKCKVSNKALPASIEKTISKAKGQPREPQVCTLPPSREEMTKNQVSLSCAVKGFYPSDIAVEWESNGQPENNYKTTPPVLDSDGSFFLVSKLTVDKSRWQQGNVFSCSVMHEALHNHYTQKSLSLSPGGGGGSGGGGSGGGGSGGGGGSSWMEEVIKLCGRELVRAQIAICGMSTWS |
| 6.37e-11 | 3.09e-11 | 4.67e-08 | RELAX0085 (Fc fusion) chain 1: DKTHTCPPCPAPEFEGGPSVFLFPPKPKDTLMISRTPEVTCVVVDVSHEDPEVKFNWYVDGVEVHNAKTKPREEQYNSTYRVVSVLTVLHQDWLNGKEYKCKVSNKALPASIEKTISKAKGQPREPQVYTLPPCREEMTKNQVSLWCLVKGFYPSDIAVEWESNGQPENNYKTTPPVLDSDGSFFLYSKLTVDKSRWQQGNVFSCSVMHEALHNHYTQKSLSLSPGGGGGSGGGGSGGGGSGGGGGSQLYSALANKCCHVGCTKRSLARFC chain 2: DKTHTCPPCPAPEFEGGPSVFLFPPKPKDTLMISRTPEVTCVVVDVSHEDPEVKFNWYVDGVEVHNAKTKPREEQYNSTYRVVSVLTVLHQDWLNGKEYKCKVSNKALPASIEKTISKAKGQPREPQVCTLPPSREEMTKNQVSLSCAVKGFYPSDIAVEWESNGQPENNYKTTPPVLDSDGSFFLVSKLTVDKSRWQQGNVFSCSVMHEALHNHYTQKSLSLSPGAPAPAPAPAPAPAPAPAPAGSSWMEEVIKLCGRELVRAQIAICGMSTWS |
| 4.49e-11 | 2.68e-11 | 4.88e-08 | RELAX0086 (Fc fusion) chain 1: DKTHTCPPCPAPEFEGGPSVFLFPPKPKDTLMISRTPEVTCVVVDVSHEDPEVKFNWYVDGVEVHNAKTKPREEQYNSTYRVVSVLTVLHQDWLNGKEYKCKVSNKALPASIEKTISKAKGQPREPQVYTLPPCREEMTKNQVSLWCLVKGFYPSDIAVEWESNGQPENNYKTTPPVLDSDGSFFLYSKLTVDKSRWQQGNVFSCSVMHEALHNHYTQKSLSLSPGGGGGSGGGGSGGGGGSQLYSALANKCCHVGCTKRSLARFC chain 2: DKTHTCPPCPAPEFEGGPSVFLFPPKPKDTLMISRTPEVTCVVVDVSHEDPEVKFNWYVDGVEVHNAKTKPREEQYNSTYRVVSVLTVLHQDWLNGKEYKCKVSNKALPASIEKTISKAKGQPREPQVCTLPPSREEMTKNQVSLSCAVKGFYPSDIAVEWESNGQPENNYKTTPPVLDSDGSFFLVSKLTVDKSRWQQGNVFSCSVMHEALHNHYTQKSLSLSPGGGGGSGGGGSGGGGSGGGGGSSWMEEVIKLCGRELVRAQIAICGMSTWS |
